Molecular target: Rhodobacter sphaeroides TSPO A139T mutant (Rhodobacter sphaeroides) (UniProt Q9RFC8)
Experiment: native MS

stoichiometry N: 2
Substance: Rhodobacter sphaeroides TSPO A139T mutant (from UniProt Q9RFC8 1-157) (natural protein)

Reference: paper PMC7332344
